Results published in patent US20220195070A1 (Chugai, published 2022).

B1: SKA0054 (antibody, V domains shown)
VH: QSLEESGGGLVQPEGSLTLTCTASGFSFSSSFWICWVRQAPGKGLEWLACIDAGSSDNTYYANWAKGRFTISKTSSTTVTLQMTSLTDADTATYFCARDRDAAGDAGYGYATSFNLWGPGTLVTVSS
VL: AIDMTQTPSSVSAAVGGTVTINCQASESIYSNLAWYQQKPGQRPKLLIYLASTLASGVPSRFKGSGSGTEFTLTISDLECADAATYYCQSVYYDSRGDTFFWAFGGGTEVVVKG
notes: Recombinant rabbit monoclonal from B-cell cloning, expressed in FreeStyle 293-F cells; the first screen used B-cell culture supernatant; also called Anti-SG115 Antibody; rabbit Anti Fc-Mutation Antibody
B2: SKA0127 (antibody, V domains shown)
VH: QSVEESGGRLVTPGTPLTLTCTVSGIDLSTYAMTWVRQAPGKGLEYIGYINGGGSAYYASWVNGRFTISKTSTTADLKITSPTTEDTATYFCARGPVGSYHRIWGPGTLVTVSS
VL: ALVMTQTPSSVSEPVGGTVTINCRASEDIESYLAWYQQKPGQPPKLLIYATSNLETGVPSRFKGSGSGTDYTLTISGVQCADAATYYCQGYYELSSIDNNAFGGGTEVVVKG
notes: as for B1

Columns and labels:
Glm = biological target: T1, Glm (human, UniProt P01857 1-328 = IgG part); assay: ELISA, OD405 against dose (ng/mL, log axis 1-100)
T1 construct: Construct used in the ELISA is not described beyond the constant region; also called G1m
T1 sequence (P01857 1-328 D239E/L241M limits assumed): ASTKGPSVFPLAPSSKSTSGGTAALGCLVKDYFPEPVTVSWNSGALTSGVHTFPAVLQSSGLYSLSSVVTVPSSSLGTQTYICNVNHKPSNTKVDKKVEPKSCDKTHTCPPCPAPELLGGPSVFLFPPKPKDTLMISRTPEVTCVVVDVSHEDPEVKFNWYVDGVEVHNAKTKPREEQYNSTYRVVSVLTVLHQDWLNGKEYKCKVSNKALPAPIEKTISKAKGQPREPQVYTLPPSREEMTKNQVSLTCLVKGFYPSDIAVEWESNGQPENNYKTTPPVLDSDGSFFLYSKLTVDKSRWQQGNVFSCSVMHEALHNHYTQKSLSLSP

SG115v2 = biological target: T2, SG115v2 (human, UniProt P01857 1-328 = IgG part); assay: ELISA, OD405 against dose (ng/mL, log axis 1-100)
T2 construct: Carries the CH3 modifications of SG115 (Leu428, Ala434, Arg438, Glu440, EU); Construct used in the ELISA is not described beyond the constant region; also called modified IgG heavy chain constant region SG115v2
T2 sequence (P01857 other isoform, or with tags, fused parts or gaps limits assumed): as the sequence (P01857 1-328 D239E/L241M limits assumed) above, with A210G, A213S, P214S, M311L, N317A, Q321R, S323E counted along it

SG115v1 = biological target: T3, SG115v1 (human, UniProt P01857 1-328 = IgG part); assay: ELISA, OD405 against dose (ng/mL, log axis 1-100)
T3 construct: Carries the CH2 modifications of SG115 (Arg235, Arg236, Lys239, EU); Construct used in the ELISA is not described beyond the constant region; also called modified IgG heavy chain constant region SG115v1
T3 sequence (P01857 other isoform, or with tags, fused parts or gaps limits assumed): as the sequence (P01857 1-328 D239E/L241M limits assumed) above, with L118R, G119R, S122K, A210G, A213S, P214S counted along it

G4d = biological target: T4, G4d (human, UniProt P01861 1-325 = IgG part); assay: ELISA, OD405 against dose (ng/mL, log axis 1-100)
T4 construct: Construct used in the ELISA is not described beyond the constant region
T4 sequence (P01861 1-325 S108P limits assumed): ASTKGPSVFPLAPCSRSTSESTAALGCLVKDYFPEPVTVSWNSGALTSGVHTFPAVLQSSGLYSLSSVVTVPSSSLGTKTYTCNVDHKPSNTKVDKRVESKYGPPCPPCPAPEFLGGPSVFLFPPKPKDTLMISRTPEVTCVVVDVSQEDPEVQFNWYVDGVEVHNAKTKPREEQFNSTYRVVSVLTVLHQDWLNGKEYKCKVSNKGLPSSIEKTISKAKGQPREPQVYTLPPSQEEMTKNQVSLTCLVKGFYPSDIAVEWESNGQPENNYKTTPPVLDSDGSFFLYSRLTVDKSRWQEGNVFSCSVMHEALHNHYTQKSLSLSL

SG115 = biological target: T5, SG115 (human, UniProt P01857 1-328 = IgG part); assay: ELISA, OD405 against dose (ng/mL, log axis 1-100)
T5 construct: also called modified IgG heavy chain constant region SG115
T5 sequence (P01857 other isoform, or with tags, fused parts or gaps limits assumed): as the sequence (P01857 1-328 D239E/L241M limits assumed) above, with L118R, G119R, S122K, A210G, A213S, P214S, M311L, N317A, Q321R, S323E counted along it

Anti-IL-8 Antibody = biological target: T6, Anti-IL-8 Antibody; assay: SPR (Biacore T200), 25 C, pH 7.4; SKA antibody captured by anti-rabbit IgG, Anti-IL-8 Antibody injected 0-800 nM
T6 construct: also called anti-human IL-8 antibody; Fc-Mutated Antibody
T6 sequence (constant, as listed by the source limits assumed): as the sequence (P01857 1-328 D239E/L241M limits assumed) above, with L118R, G119R, A210G, A213S, P214S, M311L, N317A, Y319T, Q321R, S323E counted along it
Protocol: To confirm the binding ability of Anti Fc-Mutation Antibodies that show selective binding to SG115v1, KD values of Anti Fc-Mutation Antibodies against Anti-IL-8 Antibody at pH 7.4 were determined at 25 degrees C. using Biacore T200 instrument (GE Healthcare). Sequence of Fc region of Anti-IL-8 Antibody has high similarity to that of Anti-hC5 Antibody.
Anti-rabbit IgG (Abbexa) was immobilized onto FC1 and 2 of a CMS sensor chip using an amine coupling kit (GE Healthcare). For the immobilization of anti-rabbit IgG, HBS-EP+, pH7.4 (GE Healthcare) buffer was used as running buffer. After the immobilization, running buffer was changed to Phosphate pH7.4 buffer (50 mM phosphate buffer containing 150 mM NaCl and 0.05 w/v % P-20, pH 7.4). Each Anti Fc-Mutation Antibody was captured onto FC2 of the sensor chip by anti-rabbit IgG. The amount of Anti Fc-Mutation Antibody to be captured was adjusted so that the number of resonance units (RU) was 100. Anti-IL-8 Antibody was injected at 0, 100, 400, and 800 nM at 10 micro L/min. Sensor surface was regenerated after each cycle with 10 mM Glycine-HCl, pH2.0, which was injected at a flow rate of 30 micro L/min. KD values were obtained using Biacore T200 Evaluation software, version 2.0 (GE Healthcare).

Row | Binder | binding result (Glm) | binding result (SG115v2) | binding result (SG115v1) | binding result (G4d) | binding result (SG115) | Kd (Anti-IL-8 Antibody) [nM] | koff (Anti-IL-8 Antibody) [s⁻¹] | kon (Anti-IL-8 Antibody) [M⁻¹ s⁻¹]
1 | B1 | no binding (tested: about 60 ng/mL) | no binding (tested: about 60 ng/mL) | binds | no binding (tested: about 60 ng/mL) | binds | 96.8 | 0.000966 | 9980
2 | B2 | no binding (tested: about 60 ng/mL) | no binding (tested: about 60 ng/mL) | binds | no binding (tested: about 60 ng/mL) | binds | 45.4 | 0.000804 | 17700
